Measurements taken from patent publication US20250101107A1.

B1: 03A01-Fab-IL12 (LC) (protein, from a related filing, not shown: a dimerising Fc or GST)
VH: DVQFQESGPGLVKPSQSLSLTCTVTGYSITSDFAWNWIRQFPGNELEWMGYISYSGDTNYNPSLRSRISITRDTSKNQFFLQLDSVTTEDTATYYCTIRGYYTDSAFVFWGQGTLVTVSA
VL: DIQMTQSSSYLSVSLGGRVTITCKASDHINNWLAWYQQKPGNAPRLLISGATSLETGVPSRFTGSGSGLDYTLSITSLQTEDVATYYCQQYWNSPFTFGSGTKLEIK
B2: 03A01-Fab-Fc-IL12 (LC) (protein, from a related filing, not shown: a dimerising Fc or GST)
VH: B1 VH
VL: B1 VL
B3: 02A01-Fab-IL12 (LC) (protein, from a related filing, not shown: a dimerising Fc or GST)
VH: EVQLQQSGPELVKPGASLKISCKASGYTFTDFTMHWVKQSHGKSLEWIGLVNPNNGGNIYNQNFKGKATLTVDTSSSTAYMELRSLTSEDSSVYYCGRVPLYTSHGMDYWGQGTSVTVSS
VL: DIVLTQSPAFLAVSLGQRATISCRASESVDSYDINSMHWYQQKPGQPPKLLIYRASHLQSGIPARFSGSGSRTDFTLTINFVEADDVATYYCQQSNEDPLTFGAGTKLELK
B4: 02A01-Fab-Fc-IL12 (LC) (protein, from a related filing, not shown: a dimerising Fc or GST)
VH: B3 VH
VL: B3 VL

Biological target: human CD8 on human T cells (human) (UniProt P01732)
Experiment: cell-based or functional assay

Sequence of human CD8 on human T cells (human) (P01732 22-235, chain 1 of 2): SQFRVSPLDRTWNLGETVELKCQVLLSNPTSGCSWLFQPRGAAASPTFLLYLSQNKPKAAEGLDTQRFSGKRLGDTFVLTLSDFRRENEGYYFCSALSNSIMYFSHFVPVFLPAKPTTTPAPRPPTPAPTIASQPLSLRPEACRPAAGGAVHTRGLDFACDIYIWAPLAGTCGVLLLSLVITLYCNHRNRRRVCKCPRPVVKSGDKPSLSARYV
Sequence of human CD8 on human T cells (human) (P10966 22-210, chain 2 of 2, further chain): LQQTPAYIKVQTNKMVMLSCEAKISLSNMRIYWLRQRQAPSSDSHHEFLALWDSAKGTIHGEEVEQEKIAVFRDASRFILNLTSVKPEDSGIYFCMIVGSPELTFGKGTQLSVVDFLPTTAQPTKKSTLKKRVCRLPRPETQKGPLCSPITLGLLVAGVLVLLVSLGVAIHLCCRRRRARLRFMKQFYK

Binder	EC50 for stimulation of pSTAT4 signaling, CD8+ T cells in pre-activated human PBMCs
B1	11.1 pM
B2	13.4 pM
B3	1.74 pM
B4	2.11 pM
